Test results taken from patent publication WO2010007376A2 (dated 2010).

How the values were obtained:
[1] = molecular target: T1, recombinant human CD28/Fc Chimera (R&D Systems, Abingdon, UK) (human, UniProt P10747 19-152); assay: BIAcore, CM5 chip coated with 12500 RU of CD28-Fc; dAb at 57.5 uM
T1 construct: Bought reagent; Fc part of the bought chimera not given

[2] = molecular target: T1, recombinant human CD28/Fc Chimera (R&D …); assay: BIAcore, CM5 chip coated with 12500 RU of CD28-Fc; dAb at 13.8 uM
[3] = molecular target: T1, recombinant human CD28/Fc Chimera (R&D …); assay: BIAcore, CM5 chip coated with 12500 RU of CD28-Fc; dAb at 42.3 uM
[4] = molecular target: T1, recombinant human CD28/Fc Chimera (R&D …); assay: BIAcore, CM5 chip coated with 12500 RU of CD28-Fc; dAb at 19.4 uM
[5] = molecular target: T1, recombinant human CD28/Fc Chimera (R&D …); assay: BIAcore, CM5 chip coated with 12500 RU of CD28-Fc; dAb at 16.6 uM
[6] = molecular target: T1, recombinant human CD28/Fc Chimera (R&D …); assay: BIAcore, CM5 chip coated with 12500 RU of CD28-Fc; dAb concentration not given

B1: DOM21-20 (other)
VH: EVQLLESGGGLVQPGGSLRLSCAASGFTFPAYSMIWVRQAPGKGLEWVSTISPLGYSTYYADSVKGRFTISRDNSKNTLYLQMNSLRAEDTAVYYCAEQTAYLNRATEHFDYWGQGTLVTVSS
notes: Human VH antibody single variable domain (dAb), expressed from pDOM5 and purified
binding result [1]: binds

B2: DOM21-18 (other)
VL: DIQMTQSPSSLSASVGDRVTITCRASQYIGTSLNWYQQKPGKAPKLLTYQASLLQSGVPSRFSGSGSGTDFTLTISSLQPEDFATYYCQQLALRPMTFGQGTKVEIKR
notes: Human VK (DPK9/JK1) antibody single variable domain (dAb), expressed from pDOM5 and purified
binding result [2]: binds

B3: DOM21-4 (other)
VH: EVQLLESGGGLVQPGGSLRLSCAASGFTFSRYHMAWVRQAPGKGLEWVSVIDSLGLQTYYADSVKGRFTISRDNSKNTLYLQMNSLRAEDTAVYYCAEYGGAFDYWGQGTLVTVSS
notes: Human VH antibody single variable domain (dAb) from a DP47/JH4b library, expressed from pDOM5 and purified
binding result [3]: binds

B4: DOM21-22 (other)
VH: EVQLLESGGGLVQPGGSLRLSCAASGFTFELYQMGWVRQAPGKGLEWVSTIMPSGNLTYYADSVKGRFTISRDNSKNTLYLQMNSLRAEDTAVYYCAKMWSLNLGFHAAFDYWGQGTLVTVSS
notes: as for B1
binding result [4]: binds

B5: DOM21-28 (other)
VL: DIQMTQSPSSLSASVGDRVTITCRASQSISHSLVWYQQKPGKAPKLLIYWASLLQSGVPSRFSGSGSGTDFTLTISSLQPEDFATYYCQQGMTTPFTFGQGTKVEIKR
notes: Human VK antibody single variable domain (dAb), expressed from pDOM5 and purified
binding result [5]: binds

B6: DOM21-44 (other)
VH: EVQLLESGGGLVQPGGSLRLSCAASGFTFARYTMVWVRQAPGKGLEWVSAIHFDGRTTYYADSVKGRFTISRDNSKNTLYLQMNSLRAEDTAVYYCAKNEWASLKHFDYWGQGTLVTVSS
notes: as for B1
binding result [6]: binds

B7: DOM21-38 (other)
VH: EVQLLESGGGLVQPGGSLRLSCAASGFTFILYDMQWVRQAPGKGLEWVSRISANGHDTYYADSVKGRFTISRDNSKNTLYLQMNSLRAEDTAVYYCAKGPHYLFDYWGQGTLVTVSS
notes: as for B1
binding result [6]: binds
